B1: ADP-ribosylation factor-like protein 6 (Homo sapiens), Q9H0F7-1 (parent)
chain: MGLLDRLSVLLGLKKKEVHVLCLGLDNSGKTTIINKLKPSNAQSQNILPTIGFSIEKFKSSSLSFTVFDMSGQGRYRNLWEHYYKEGQAIIFVIDSSDRLRMVVAKEELDTLLNHPDIKHRRIPILFFANKMDLRDAVTSVKVSQLLCLENIKDKPWHICASDAIKGEGLQEGVDWLQDQIQTVKT
partner: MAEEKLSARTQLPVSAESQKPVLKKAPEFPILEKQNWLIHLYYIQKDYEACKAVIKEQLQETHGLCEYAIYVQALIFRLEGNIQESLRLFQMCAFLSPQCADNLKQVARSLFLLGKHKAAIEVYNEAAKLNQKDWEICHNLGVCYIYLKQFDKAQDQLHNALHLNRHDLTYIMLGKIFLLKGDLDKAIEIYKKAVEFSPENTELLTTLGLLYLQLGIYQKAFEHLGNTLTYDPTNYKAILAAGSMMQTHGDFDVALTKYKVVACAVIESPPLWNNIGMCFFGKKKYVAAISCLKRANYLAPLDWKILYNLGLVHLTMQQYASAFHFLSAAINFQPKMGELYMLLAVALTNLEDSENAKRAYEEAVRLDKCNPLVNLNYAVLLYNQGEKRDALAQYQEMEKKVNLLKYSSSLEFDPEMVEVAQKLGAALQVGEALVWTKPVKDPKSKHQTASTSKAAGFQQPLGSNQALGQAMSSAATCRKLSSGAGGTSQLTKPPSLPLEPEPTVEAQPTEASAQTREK
B2: BBSome complex member BBS1 (Homo sapiens), Q8NFJ9 (parent)
chain: MAAASSSDSDACGAESNEANSKWLDAHYDPMANIHTFSACLALADLHGDGEYKLVVGDLGPGGQQPRLKVLKGPLVMTESPLPALPAAAATFLMEQHEPRTPALALASGPCVYVYKNLRPYFKFSLPQLPPNPLEQDLWNQAKEDRIDPLTLKEMLESIRETAEEPLSIQSLRFLQLELSEMEAFVNQHKSNSIKRQTVITTMTTLKKNLADEDAVSCLVLGTENKELLVLDPEAFTILAKMSLPSVPVFLEVSGQFDVEFRLAAACRNGNIYILRRDSKHPKYCIELSAQPVGLIRVHKVLVVGSTQDSLHGFTHKGKKLWTVQMPAAILTMNLLEQHSRGLQAVMAGLANGEVRIYRDKALLNVIHTPDAVTSLCFGRYGREDNTLIMTTRGGGLIIKILKRTAVFVEGGSEVGPPPAQAMKLNVPRKTRLYVDQTLREREAGTAMHRAFQTDLYLLRLRAARAYLQALESSLSPLSTTAREPLKLHAVVQGLGPTFKLTLHLQNTSTTRPVLGLLVCFLYNEALYSLPRAFFKVPLLVPGLNYPLETFVESLSNKGISDIIKVLVLREGQSAPLLSAHVNMPGSEGLAAA
partner: B1 chain

One experiment covers variants of B1. Conditions: with bbs4_bovin BBS4, Q1JQ97.
On to MGLLDRLSVLLGLKKKEVHVLCLGLDNSGKTTIINKLKPSNAQSQNILPTIGFSIEKFKSSSLSFTVFDMSGQGRYRNLWEHYYKEGQAIIFVIDSSDRLRMVVAKEALDTLLNHPDIKHRRIPILFFANKMDLRDAVTSVKVSQLLCLENIKDKPWHICASDAIKGEGLQEGVDWLQDQIQTVKT [E108A], for which the “effect of a mutation on the interaction” value is reported as “disrupting interaction strength”.

For the variant MGLLDRLSVLLGLKKKEVHVLCLGLDNSGKTTIINKLKPSNAQSQNILPTIGFSIEKFKSSSLSFTVFDMSGQGRYRNLWEHYYKEGQAIIFVIDSSDRERMVVAKEELDTLLNHPDIKHRRIPILFFANKMDLRDAVTSVKVSQLLCLENIKDKPWHICASDAIKGEGLQEGVDWLQDQIQTVKT [L100E], the “effect of a mutation on the interaction” value is recorded as “disrupting interaction strength”.

On to MGLLDRLSVLLGLKKKEVHVLCLGLDNSGKTTIINKLKPSNAQSQNILPTIGFSIEKFKSSSLSFTVFDMSGQGRYANLWEHYYKEGQAIIFVIDSSDRLRMVVAKEELDTLLNHPDIKHRRIPILFFANKMDLRDAVTSVKVSQLLCLENIKDKPWHICASDAIKGEGLQEGVDWLQDQIQTVKT [R77A], for which the “effect of a mutation on the interaction” value is on record as “disrupting interaction strength”.

In the next experiment the parent is B2. Particulars: with ARL6, Q9H0F7-1.
Take MAAASSSDSDACGAESNEANSKWLDAHYDPMANIHTFSACLALADLHGDGEYKLVVGDLGPGGQQPRLKVLKGPLVMTESPLPALPAAAATFLMEQHEPRTPALALASGPCVYVYKNLRPYFKFSLPQLPPNPLEQDLWNQAKEDRIDPLTLKEMLESIRETAEEPLSIQSLRFLQLELSEMEAFVNQHKSNSIKRQTVITTMTTLKKNLADEDAVSCLVLGTENKELLVLDPEAFTILAKMSLPSVPVFLEVSGQFDVEFRLAAACRNGNIYILRRDSKHPKYCIELSAQPVGLIRVHKVLVVGSTQDSLHGFTHKGKKLWTVQMPAAILTMNLLEQHSRGLQAVMAGLANGEVRIYRDKALLNVIHTPDAVTSLCFGRYGREDNTLIRTTRGGGLIIKILKRTAVFVEGGSEVGPPPAQAMKLNVPRKTRLYVDQTLREREAGTAMHRAFQTDLYLLRLRAARAYLQALESSLSPLSTTAREPLKLHAVVQGLGPTFKLTLHLQNTSTTRPVLGLLVCFLYNEALYSLPRAFFKVPLLVPGLNYPLETFVESLSNKGISDIIKVLVLREGQSAPLLSAHVNMPGSEGLAAA [M390R]: the “effect of a mutation on the interaction” value was “disrupting interaction strength”.

Variants of B2 are the subject of the next experiment. Conditions: with ARL6, Q9H0F7-1. This is another data set of the same source.
Take MAAASSSDSDACGAESNEANSKWLDAHYDPMANIHTFSACLALADLHGDGEYKLVVGDLGPGGQQPRLKVLKGPLVMTESPLPALPAAAATFLMEQHEPRTPALALASGPCVYVYKNLRPYFKFSLPQLPPNPLEQDLWNQAKEDRIDPLTLKEMLESIRETAEEPLSIQSLRFLQLELSEMEAFVNQHKSNSIKRQTVITTMTTLKKNLADEDAVSCLVLGTENKELLVLDPEAFTILAKMSLPSVPVFLEVSGQFDVEFRLAAACRNGNIYILRRDSKHPKYCIELSAQPVGLIRVHKVLVVGSTQDSLHGFTHKGKKLWTVQMPAAILTMNLLEQHSRGLQAVMAGLANGEVRIYRDKALLNVIHTPDAVTSLCFGRYGREDNTLIMTTRGGGLIEKILKRTAVFVEGGSEVGPPPAQAMKLNVPRKTRLYVDQTLREREAGTAMHRAFQTDLYLLRLRAARAYLQALESSLSPLSTTAREPLKLHAVVQGLGPTFKLTLHLQNTSTTRPVLGLLVCFLYNEALYSLPRAFFKVPLLVPGLNYPLETFVESLSNKGISDIIKVLVLREGQSAPLLSAHVNMPGSEGLAAA [I399E]: the “effect of a mutation on the interaction” value is reported as “disrupting interaction strength”.

Turning to MAAASSSDSDACGAESNEANSKWLDAHYDPMANIHTFSACLALADLHGDGEYKLVVGDLGPGGQQPRLKVLKGPLVMTESPLPALPAAAATFLMEQHEPRTPALALASGPCVYVYKNLRPYFKFSLPQLPPNPLEQDLWNQAKEDRIDPLTLKEMLESIRETAEEPLSIQSLRFLQLELSEMEAFVNQHKSNSIKRQTVITTMTTLKKNLADEDAVSCLVLGTENKELLVLDPEAFTILAKMSLPSVPVFLEVSGQFDVEFRLAAACRNGNIYILRRDSKHPKYCIELSAQPVGLIRVHKVLVVGSTQDSLHGFTHKGKKLWTVQMPAAILTMNLLEQHSRGLQAVMAGLANGEVRIYRDKALLNVIHTPDAVTSLCFGRYGREDNTLIMTTRGGGLIIKILKATAVFVEGGSEVGPPPAQAMKLNVPRKTRLYVDQTLREREAGTAMHRAFQTDLYLLRLRAARAYLQALESSLSPLSTTAREPLKLHAVVQGLGPTFKLTLHLQNTSTTRPVLGLLVCFLYNEALYSLPRAFFKVPLLVPGLNYPLETFVESLSNKGISDIIKVLVLREGQSAPLLSAHVNMPGSEGLAAA [R404A], the “effect of a mutation on the interaction” value is “disrupting interaction strength”.

The values above are taken from IntAct's records for PubMed 25402481.
